Results on 7 molecules are retold here after US20260098089A1 (KYMAB, published 2026).

The target in assay [1] is T1, Human CD7 on cells (CEM and other T-ALL cells, peripheral NK and T cells) (human, UniProt P09564 26-238).
T1 sequence: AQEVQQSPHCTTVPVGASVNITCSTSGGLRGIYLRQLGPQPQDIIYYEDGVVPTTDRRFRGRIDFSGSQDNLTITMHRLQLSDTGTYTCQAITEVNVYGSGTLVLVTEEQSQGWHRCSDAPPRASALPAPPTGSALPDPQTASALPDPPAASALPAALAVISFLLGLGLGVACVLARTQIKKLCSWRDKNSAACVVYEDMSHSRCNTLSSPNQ
In words: cell-based or functional assay.

For assay [2], the target named is T2, Cynomolgus monkey (Macaca fascicularis) CD7 protein (soluble) (cynomolgus monkey (Macaca fascicularis)).
T2 construct: also called Cynomolgus CD7; cynomolgus antigen
T2 chain: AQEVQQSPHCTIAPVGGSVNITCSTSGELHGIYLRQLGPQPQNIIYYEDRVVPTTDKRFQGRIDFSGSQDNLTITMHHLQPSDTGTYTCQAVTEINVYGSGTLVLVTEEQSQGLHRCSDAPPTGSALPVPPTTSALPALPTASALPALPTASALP
In words: SPR, mAb captured, single concentration of cynomolgus CD7 protein as analyte.

The target of assay [3] is T3, Human CD7 protein (soluble) (human, UniProt P09564 26-180).
T3 construct: also called hCD7; human antigen
T3 sequence: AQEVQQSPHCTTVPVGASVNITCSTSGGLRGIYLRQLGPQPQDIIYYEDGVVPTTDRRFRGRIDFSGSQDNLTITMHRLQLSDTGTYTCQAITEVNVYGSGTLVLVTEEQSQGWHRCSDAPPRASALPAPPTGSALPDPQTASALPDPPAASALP
The experiment in a line: SPR, captured mAb, global fit 1:1 model. (In general: SPR reads the build-up and loss of mass on a sensor chip optically.)

For assay [4], the target named is T2, Cynomolgus monkey (Macaca fascicularis) …. In words: SPR, captured mAb, global fit 1:1 model.
For assay [5], the target named is T1, Human CD7 on cells (CEM and other T-ALL …). In words: cell-based or functional assay. The source holds these as a separate data set.
The target in assay [6] is T3, Human CD7 protein (soluble). In words: Affinity to soluble CD7 (biophysical summary; SPR).
In assay [7] the target is T2, Cynomolgus monkey (Macaca fascicularis) …. In words: Affinity to soluble CD7 (biophysical summary; SPR).

B1: 1741E04 E345R (antibody, human IgG1, V domains shown)
VH: EVQLVESGGGLVKPGGSPRLSCAAYGVTFSNAWMSWVRQAPGKGLEWVGRIKSKTDGGTTDYAAPVKGRFTISRDDSKNTLYLQMNSLKTEDTAVYYCTIEAVAGHFDYWGQGTLVTVSS
VL: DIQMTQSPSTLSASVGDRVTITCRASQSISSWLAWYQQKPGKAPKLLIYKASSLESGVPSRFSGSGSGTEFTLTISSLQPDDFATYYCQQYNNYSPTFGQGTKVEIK
As for B1, in assay [1], the “EC50, CDC assay on CEM cells” value was 0.12 nM and the “Maximum killing, CDC assay on CEM cells” value was 99.8%. For the same molecule, the binding result in assay [2] was “no binding”.

B2: 1730C02 E345R (antibody, human IgG1, V domains shown)
VH: EVQLVESGGGLVQLGGSLRLSCAASGLTFNNYAMSWVRQAPGKGLEWVSTISGSGGSTYYADSAKGRFTISRDNSKNTLYLQMNSLRAEDTAVYYCAKGGLLYFGEFHFDYWGQGTLVTVSS
VL: DIQMTQSPSSLSASVGDRVTIICRASQGISNYLAWFQQKPGKAPKSLIYAASSLQSGVPSKFSGSGSGTDFTLTISSLQPEDFATYYCQHYNSYPLTFGGGTKVEIK
As for B2, in assay [1], the “EC50, CDC assay on CEM cells” value worked out at 0.00037 nM and the “Maximum killing, CDC assay on CEM cells” value is 93.2%.

B3: 1734F05 E345R (antibody, V domains shown)
VH: EVQLVESGGGLVQPGGSLRLSCAASGFTFSRYAMSWVRQAPGKGLEWVSSISASGATTFYADPVKGRFTISRDNSKKTLYLQMNSLRAEDTAVYYCAKDQDFDILTGYLNWFDPWGQGTLVTVSS
VL: EIVLTQSPATLSLSPGERVILSCRVSQSVSSYLAWYQQKPGQAPRLLIYDTSNRATGIPARFSGSGSGTDFTLTISSLEPEDFAVYYCQQRRNWPLTFGGGTKVEIK
With B3, in assay [1], the “EC50, CDC assay on CEM cells” value is 1.16 nM and the “Maximum killing, CDC assay on CEM cells” value was 100%.

B4: 1734F05 (antibody, V domains shown)
VH: B3 VH
VL: B3 VL
B4: in assay [3], the Kd – broadly, the equilibrium constant for the complex coming apart – was determined as 0.98 nM; the koff – broadly, the first-order rate constant of dissociation – came out at 0.000356 s⁻¹; the kon – broadly, the second-order rate constant of association – is 369000 M⁻¹ s⁻¹. In assay [4], this molecule showed a Kd of 3.9 nM, a koff of 0.000642 s⁻¹ and a kon of 165000 M⁻¹ s⁻¹.

B5: 1741G09 E345R (antibody, V domains shown)
VH: EVQLVESGGGLVKPGGSLRLSCAASGFSFSVAWMSWVRQAPGKGLEWVGRIKRKTDGGTTDYAAPVKGRFIISRDDSIKALYLQMNSLKTEDTAVYYCTTDPLLRYSDWLSHSLMGDVWGQGTTVTVSS
VL: DIQMTQSPSSLSASVGDRVAITCRTSQNINNYLNWYQQKPGKAPKPLIYAASSLQSGVPSRFSGSGSGTDFTLTISTLHPEDFATYYCQQTYSIPLTFGGGTKVEIK
As for B5, in assay [1], the “EC50, CDC assay on CEM cells” value was 0.12 nM and the “Maximum killing, CDC assay on CEM cells” value was determined as 99.5%.

B6: 1741G09 HuIgG1 E430G C-term Lysine clipped, Phe variant of light chain (antibody, V domains shown)
VH: B5 VH
VL: DIQMTQSPSSLSASVGDRVAITCRTSQNINNYLNWYQQKPGKAPKPLIYAASSLQSGVPSRFSGSGSGTDFTLTISTLHPEDFATYYCQQTYSIPLTFGGGTKVEIKR
notes: also called 1741G09 E430G; G09 E430G
As for B6, in assay [5], the “CDC EC50; PDATLLAd2R, PDATALL12, PDTALL11 (intermediate to low CD7 expression)” value was below 0.4 nM; the “CDC EC50; PDTALL13, PDTALL18 (much low CD7 expression)” value was below 0.6 nM; the “CDC EC50; PDTALL46 and PDTALLAd2R” value was around 0.35 nM; the “CDC assay on isolated peripheral NK cells, EC50” value is around 0.3 nM. This molecule yielded a dissociation constant (Kd) in assay [6] of 4.75 nM. Besides, the Kd in assay [7] is 0.15 nM.

B7: 1741G09 (antibody, V domains shown)
VH: B5 VH
VL: B5 VL
notes: also called 1741G9
In assay [3], B7 came in with a Kd of 4.74 nM, a koff of 0.00192 s⁻¹ and a kon of 416000 M⁻¹ s⁻¹. Also, in assay [4], the Kd came out at 0.145 nM and the kon came to 424000 M⁻¹ s⁻¹.
